T1: control CD19 protein (UniProt P15391 20-291, limits assumed)
T1 sequence (looked up): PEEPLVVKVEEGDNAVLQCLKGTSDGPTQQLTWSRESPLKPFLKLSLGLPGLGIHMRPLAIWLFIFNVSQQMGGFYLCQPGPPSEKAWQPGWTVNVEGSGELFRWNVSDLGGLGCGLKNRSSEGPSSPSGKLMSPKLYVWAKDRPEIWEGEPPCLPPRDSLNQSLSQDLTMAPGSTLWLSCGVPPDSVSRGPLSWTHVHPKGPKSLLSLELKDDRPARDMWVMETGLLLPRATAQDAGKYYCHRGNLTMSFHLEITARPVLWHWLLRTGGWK

T2: CD5 expressed on the cell surface (transfected HEK293T cells; Raji cells ectopically expressing wild type CD5) (UniProt P06127 25-495, limits assumed)
T2 sequence (looked up): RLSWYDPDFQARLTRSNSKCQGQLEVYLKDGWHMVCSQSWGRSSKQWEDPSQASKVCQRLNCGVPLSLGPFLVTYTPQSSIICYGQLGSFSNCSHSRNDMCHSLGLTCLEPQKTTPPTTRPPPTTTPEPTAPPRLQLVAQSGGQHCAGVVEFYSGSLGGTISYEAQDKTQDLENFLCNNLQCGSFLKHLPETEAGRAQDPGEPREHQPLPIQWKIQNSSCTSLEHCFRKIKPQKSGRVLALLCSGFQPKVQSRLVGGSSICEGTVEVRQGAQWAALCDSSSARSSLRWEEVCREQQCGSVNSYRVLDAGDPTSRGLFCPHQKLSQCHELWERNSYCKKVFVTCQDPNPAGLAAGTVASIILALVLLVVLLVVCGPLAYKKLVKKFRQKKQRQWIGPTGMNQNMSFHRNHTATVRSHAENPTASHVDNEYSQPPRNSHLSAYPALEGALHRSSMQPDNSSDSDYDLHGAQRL


Assays:
control CD19 protein = biological target: T1, control CD19 protein; assay: phage ELISA
rat serum albumin = biological target: T3, rat serum albumin (rat, UniProt P02770 25-608, biotinylated); assay: phage ELISA, RSA-biotin on streptavidin plate
T3 construct: also called RSA; RSA-biotin

mouse serum albumin = biological target: T4, mouse serum albumin (mouse, UniProt P07724 25-608, biotinylated); assay: phage ELISA, MSA-biotin on streptavidin plate
T4 construct: also called MSA; MSA-biotin

[1] = biological target: T5, streptavidin (streptavidin coated plate, wells without immobilized CD5) (UniProt P22629 37-163, limits assumed); assay: phage ELISA, streptavidin coated wells without immobilized CD5
T5 construct: also called control streptavidin

[2] = biological target: T2, CD5 expressed on the cell surface …; assay: cell-based or functional assay

T4 sequence (P07724 25-608 limits assumed): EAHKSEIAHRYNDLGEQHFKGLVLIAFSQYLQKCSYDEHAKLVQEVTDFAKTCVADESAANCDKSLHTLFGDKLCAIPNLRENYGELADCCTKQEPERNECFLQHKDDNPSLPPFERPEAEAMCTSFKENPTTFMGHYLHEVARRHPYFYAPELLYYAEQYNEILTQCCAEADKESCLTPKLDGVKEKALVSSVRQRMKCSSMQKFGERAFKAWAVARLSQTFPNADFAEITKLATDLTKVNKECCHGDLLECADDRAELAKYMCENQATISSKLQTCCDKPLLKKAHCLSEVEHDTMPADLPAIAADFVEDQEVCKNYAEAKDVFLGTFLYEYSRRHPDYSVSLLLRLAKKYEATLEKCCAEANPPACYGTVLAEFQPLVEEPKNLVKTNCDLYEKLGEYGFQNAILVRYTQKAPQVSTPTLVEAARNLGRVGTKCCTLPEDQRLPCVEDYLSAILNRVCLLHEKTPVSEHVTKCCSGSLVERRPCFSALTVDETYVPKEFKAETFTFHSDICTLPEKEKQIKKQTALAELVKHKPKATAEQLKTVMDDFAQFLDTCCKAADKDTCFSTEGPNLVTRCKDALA
T3 sequence (P02770 25-608 limits assumed): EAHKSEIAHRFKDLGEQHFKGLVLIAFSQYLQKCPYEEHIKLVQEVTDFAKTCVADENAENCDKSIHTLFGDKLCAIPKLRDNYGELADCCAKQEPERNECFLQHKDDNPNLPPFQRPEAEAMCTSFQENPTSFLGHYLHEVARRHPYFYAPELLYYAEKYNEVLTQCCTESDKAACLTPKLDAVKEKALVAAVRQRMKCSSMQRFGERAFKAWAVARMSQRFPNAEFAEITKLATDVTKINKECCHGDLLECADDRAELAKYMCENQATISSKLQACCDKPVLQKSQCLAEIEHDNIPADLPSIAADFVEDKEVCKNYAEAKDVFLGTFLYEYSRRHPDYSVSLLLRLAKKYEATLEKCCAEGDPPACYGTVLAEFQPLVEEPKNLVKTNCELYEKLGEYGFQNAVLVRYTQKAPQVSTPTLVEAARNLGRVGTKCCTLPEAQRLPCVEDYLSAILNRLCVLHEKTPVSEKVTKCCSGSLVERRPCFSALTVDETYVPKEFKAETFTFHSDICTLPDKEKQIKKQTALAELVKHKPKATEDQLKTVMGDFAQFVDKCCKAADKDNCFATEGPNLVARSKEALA
T5 sequence (P22629 37-163 limits assumed): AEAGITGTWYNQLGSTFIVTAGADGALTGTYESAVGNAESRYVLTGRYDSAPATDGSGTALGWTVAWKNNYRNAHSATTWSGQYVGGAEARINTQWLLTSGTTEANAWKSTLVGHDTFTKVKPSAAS

| Binder | binding result (control CD19 protein) | binding result (rat serum albumin) | binding result (mouse serum albumin) | further results |
| --- | --- | --- | --- | --- |
| CD5 binder E10 (TRX-3 library) (designed binder) MVKQIESKTAFQEALDAAGDKLVVVDFSATKERDSAWDDWSGPSKMIKPFFHSLSEKYSNVIFLEVDVDDAQDVASEAFYWSYPSLPPTFQFFKKGQKVGEFSGANKEKLEATINELV | no binding | – | – | – |
| HSA binder E5 (TRX-3 library), phage-displayed (designed binder, AGPF loop 3′ motif) MVKQIESKTAFQEALDAAGDKLVVVDFSATRRNERARDWWSGPSKMIKPFFHSLSEKYSNVIFLEVDVDDAQDVASEALAAGPFYLLPTFQFFKKGQKVGEFSGANKEKLEATINELV | – | no binding | no binding | – |
| CD5 binder E6 (TRX-3 library), phage-displayed (designed binder, also called E6 phage) MVKQIESKTAFQEALDAAGDKLVVVDFSATNTIKHGGSRWSGPSKMIKPFFHSLSEKYSNVIFLEVDVDDAQDVASEAEKGILVSPLPTFQFFKKGQKVGEFSGANKEKLEATINELV | – | – | – | binding result [1]: no binding |
| HSA binder E1 (TRX-3 library), phage-displayed (designed binder, AGPF loop 3′ motif) MVKQIESKTAFQEALDAAGDKLVVVDFSATRSENDRWNEWSGPSKMIKPFFHSLSEKYSNVIFLEVDVDDAQDVASEALIAGPFWYSPTFQFFKKGQKVGEFSGANKEKLEATINELV | – | no binding | no binding | – |
| CD5 binder A5 (TRX-3 library) (designed binder) MVKQIESKTAFQEALDAAGDKLVVVDFSATQCNTGESHDWSGPSKMIKPFFHSLSEKYSNVIFLEVDVDDAQDVASEAWSPLIMCTMPTFQFFKKGQKVGEFSGANKEKLEATINELV | no binding | – | – | – |
| HSA binder G5 (TRX-3 library), phage-displayed (designed binder) MVKQIESKTAFQEALDAAGDKLVVVDFSATRLRTGGHPYWSGPSKMIKPFFHSLSEKYSNVIFLEVDVDDAQDVASEAVYVSLSRHRPTFQFFKKGQKVGEFSGANKEKLEATINELV | – | no binding | no binding | – |
| E6-aerolysin fusion protein (other, labelled with NHS-fluorescein for FACS (sites not given)) MVKQIESKTAFQEALDAAGDKLVVVDFSATNTIKHGGSRWSGPSKMIKPFFHSLSEKYSNVIFLEVDVDDAQDVASEAEKGILVSPLPTFQFFKKGQKVGEFSGANKEKLEATINELVGEIPTLSALDIPDGDEVDVQWRLVHDSANFIKPTSYLAHYLGYAWVGGNHSQYVGEDMDVTRDGDGWVIRGNNDGGCDGYRCGDKTAIKVSNFAYNLDPDSFKHGDVTQSDRQLVKTVVGWAVNDSDTPQSGYDVTLRYDTATNWSKTNTYGLSEKVTTKNKFKWPLVGETELSIEIAANQSWASQNGGSTTTSLSQSVRPTVPARSKIPVKIELYKADISYPYEFKADVSYDLTLSGFLRWGGNAWYTHPDNRPNWNHTFVIGPYKDKASSIRYQWDKRYIPGEVKWWDWNWTIQQNGLSTMQNNLARVLRPVRAGITGDFSAESQFAGNIEIGAPVPLAADSKVRRARSVDGAGQGLRLEIPLDAQELSGLGFNNVSLSVTPAANQ | – | – | – | EC50, MTS cytotoxicity assay on CD5+ Raji cells, 48 hours [2]: 132 nM |
| CD5 binder A1 (TRX-3 library) (designed binder) MVKQIESKTAFQEALDAAGDKLVVVDFSATQWWGWIDGQWSGPSKMIKPFFHSLSEKYSNVIFLEVDVDDAQDVASEAYPLFGMAALPTFQFFKKGQKVGEFSGANKEKLEATINELV | no binding | – | – | – |

Reference: patent US9340584 (GENERAL HOSPITAL, dated 2016)
